# From US20210071139A1
# Experiments:
# Kifc5b; Kifc1 = experiment: anti-TOX IP from EL4 nuclear extract, LC-MS/MS, MiST
# Terf2ip = Terf2ip (UniProt Q91VL8); experiment: as above
# Trim21 = Trim21 (UniProt Q62191); experiment: as above
# Hs2st1 = Hs2st1 (UniProt Q8R3H7); experiment: as above
# Dhx30 = Dhx30 (UniProt Q99PU8); experiment: as above
# Metap2 = Metap2 (UniProt O08663); experiment: as above
# Utp18 = Utp18 (UniProt Q5SSI6); experiment: as above
# Chtop = Chtop (UniProt Q9CY57); experiment: as above
# Cd2ap = Cd2ap (UniProt Q9JLQ0); experiment: as above
# Snrpb2 = Snrpb2 (UniProt Q9CQI7); experiment: as above
# Ogdh = Ogdh (UniProt Q60597); experiment: as above
# Tpm4 = Tpm4 (UniProt Q6IRU2); experiment: as above
# Cdc23 = Cdc23 (UniProt Q8BGZ4); experiment: as above
# Cdk9 = Cdk9 (UniProt Q99J95); experiment: as above
# Rif1 = Rif1 (UniProt Q6PR54); experiment: as above
# Pno1 = Pno1 (UniProt Q9CPS7); experiment: as above
# Eif5b = Eif5b (UniProt Q05D44); experiment: as above
# Tagln2 = Tagln2 (UniProt Q9WVA4); experiment: as above
# Eif4g2 = Eif4g2 (UniProt Q62448); experiment: as above
# Safb; Safb2; mKIAA0138 = experiment: as above
# Mars = Mars (UniProt Q68FL6); experiment: as above
# Trip12 = Trip12 (UniProt G5E870); experiment: as above
# Dlgap5 = Dlgap5 (UniProt Q8K4R9); experiment: as above
# Sltm = Sltm (UniProt Q8CH25); experiment: as above
# Sdcbp = Sdcbp (UniProt O08992); experiment: TOX IP-MS, EL4 nuclear extract, MiST
# Nusap1 = Nusap1 (UniProt Q9ERH4); experiment: TOX IP-MS, EL4 nuclear extract, MiST
# Ogdh, sequence (Q60597 41-1023 limits assumed): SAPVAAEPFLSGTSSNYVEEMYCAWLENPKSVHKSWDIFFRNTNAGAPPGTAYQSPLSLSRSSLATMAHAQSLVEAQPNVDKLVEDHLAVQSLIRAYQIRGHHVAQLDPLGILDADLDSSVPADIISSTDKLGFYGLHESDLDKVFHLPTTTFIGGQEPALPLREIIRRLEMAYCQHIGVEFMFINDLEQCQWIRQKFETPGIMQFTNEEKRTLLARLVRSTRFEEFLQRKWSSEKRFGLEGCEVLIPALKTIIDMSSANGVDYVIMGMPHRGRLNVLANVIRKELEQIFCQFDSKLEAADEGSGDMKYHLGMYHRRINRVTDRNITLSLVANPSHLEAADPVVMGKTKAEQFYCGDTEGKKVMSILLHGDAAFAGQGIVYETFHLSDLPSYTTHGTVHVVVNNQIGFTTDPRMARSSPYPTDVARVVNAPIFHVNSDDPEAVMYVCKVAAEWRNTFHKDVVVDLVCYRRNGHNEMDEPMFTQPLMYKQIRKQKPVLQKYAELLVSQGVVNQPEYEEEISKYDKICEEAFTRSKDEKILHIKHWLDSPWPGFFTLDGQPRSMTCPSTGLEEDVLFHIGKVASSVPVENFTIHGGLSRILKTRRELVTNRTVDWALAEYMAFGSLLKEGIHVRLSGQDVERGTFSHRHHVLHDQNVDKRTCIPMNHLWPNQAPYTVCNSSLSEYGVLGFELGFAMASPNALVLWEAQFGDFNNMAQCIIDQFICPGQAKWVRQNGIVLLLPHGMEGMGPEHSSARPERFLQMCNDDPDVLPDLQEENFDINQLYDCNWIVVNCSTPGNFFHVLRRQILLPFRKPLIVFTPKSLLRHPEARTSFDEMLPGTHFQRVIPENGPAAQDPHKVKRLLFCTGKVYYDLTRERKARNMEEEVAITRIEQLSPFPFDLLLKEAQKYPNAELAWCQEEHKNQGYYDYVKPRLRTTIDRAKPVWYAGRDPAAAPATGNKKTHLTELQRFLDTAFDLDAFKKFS
# Tpm4, sequence (Q6IRU2 2-248 limits assumed): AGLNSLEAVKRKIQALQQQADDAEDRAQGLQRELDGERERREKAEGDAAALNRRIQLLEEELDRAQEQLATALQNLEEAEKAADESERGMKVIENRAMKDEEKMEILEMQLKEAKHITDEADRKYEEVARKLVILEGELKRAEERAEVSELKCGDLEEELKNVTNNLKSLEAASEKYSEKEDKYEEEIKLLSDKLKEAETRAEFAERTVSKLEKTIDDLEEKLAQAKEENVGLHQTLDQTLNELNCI
# Trip12, sequence (G5E870 2-2025 limits assumed): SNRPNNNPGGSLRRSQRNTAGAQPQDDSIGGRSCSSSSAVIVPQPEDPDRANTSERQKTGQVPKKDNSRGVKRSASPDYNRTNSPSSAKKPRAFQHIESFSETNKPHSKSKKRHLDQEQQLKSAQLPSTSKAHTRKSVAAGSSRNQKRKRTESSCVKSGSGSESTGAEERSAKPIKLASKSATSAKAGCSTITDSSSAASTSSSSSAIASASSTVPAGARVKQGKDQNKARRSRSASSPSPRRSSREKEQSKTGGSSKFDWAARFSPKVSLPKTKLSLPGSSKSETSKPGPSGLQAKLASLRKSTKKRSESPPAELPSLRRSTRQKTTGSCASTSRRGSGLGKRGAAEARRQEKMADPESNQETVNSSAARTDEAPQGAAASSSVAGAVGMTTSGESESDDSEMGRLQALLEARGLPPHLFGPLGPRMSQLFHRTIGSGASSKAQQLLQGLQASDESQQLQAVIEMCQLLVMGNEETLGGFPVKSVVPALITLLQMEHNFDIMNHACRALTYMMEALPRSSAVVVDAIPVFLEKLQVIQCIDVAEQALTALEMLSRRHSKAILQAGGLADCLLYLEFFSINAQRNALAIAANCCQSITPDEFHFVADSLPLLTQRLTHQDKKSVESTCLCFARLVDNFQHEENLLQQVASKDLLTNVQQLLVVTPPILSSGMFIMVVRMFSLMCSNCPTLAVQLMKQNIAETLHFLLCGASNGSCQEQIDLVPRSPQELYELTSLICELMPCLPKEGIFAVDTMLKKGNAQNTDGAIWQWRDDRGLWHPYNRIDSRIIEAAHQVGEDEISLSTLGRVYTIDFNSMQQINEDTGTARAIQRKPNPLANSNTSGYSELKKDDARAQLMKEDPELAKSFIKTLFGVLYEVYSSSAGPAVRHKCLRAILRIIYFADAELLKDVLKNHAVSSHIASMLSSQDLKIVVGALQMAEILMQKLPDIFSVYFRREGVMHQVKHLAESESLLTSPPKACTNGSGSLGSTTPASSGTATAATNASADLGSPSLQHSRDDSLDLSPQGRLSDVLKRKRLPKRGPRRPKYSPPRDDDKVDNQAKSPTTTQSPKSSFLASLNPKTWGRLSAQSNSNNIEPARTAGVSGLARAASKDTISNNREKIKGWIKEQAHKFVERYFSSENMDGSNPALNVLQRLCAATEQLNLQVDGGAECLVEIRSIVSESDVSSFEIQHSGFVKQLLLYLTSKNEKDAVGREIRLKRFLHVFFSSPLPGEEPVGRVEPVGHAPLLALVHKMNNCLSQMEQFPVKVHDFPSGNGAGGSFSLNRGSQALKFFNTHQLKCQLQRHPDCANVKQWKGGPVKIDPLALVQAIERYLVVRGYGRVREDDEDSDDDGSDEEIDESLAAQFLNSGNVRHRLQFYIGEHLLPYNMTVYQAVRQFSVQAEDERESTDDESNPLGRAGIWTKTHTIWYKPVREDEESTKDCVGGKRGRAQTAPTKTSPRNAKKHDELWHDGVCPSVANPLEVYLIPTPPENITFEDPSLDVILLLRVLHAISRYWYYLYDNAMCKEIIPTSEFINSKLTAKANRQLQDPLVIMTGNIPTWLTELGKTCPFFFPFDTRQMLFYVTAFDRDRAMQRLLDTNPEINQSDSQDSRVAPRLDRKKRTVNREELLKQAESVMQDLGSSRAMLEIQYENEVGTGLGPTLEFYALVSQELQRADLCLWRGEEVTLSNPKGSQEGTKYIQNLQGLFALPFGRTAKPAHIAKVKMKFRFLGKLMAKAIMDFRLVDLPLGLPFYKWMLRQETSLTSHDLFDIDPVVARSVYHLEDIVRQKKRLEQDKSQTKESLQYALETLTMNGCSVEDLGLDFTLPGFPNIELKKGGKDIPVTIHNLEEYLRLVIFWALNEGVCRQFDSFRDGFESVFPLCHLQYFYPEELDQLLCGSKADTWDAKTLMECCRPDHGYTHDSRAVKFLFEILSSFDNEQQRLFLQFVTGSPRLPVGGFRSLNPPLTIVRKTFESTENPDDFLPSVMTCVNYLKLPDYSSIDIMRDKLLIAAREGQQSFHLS
# Cd2ap, sequence (Q9JLQ0 whole entry): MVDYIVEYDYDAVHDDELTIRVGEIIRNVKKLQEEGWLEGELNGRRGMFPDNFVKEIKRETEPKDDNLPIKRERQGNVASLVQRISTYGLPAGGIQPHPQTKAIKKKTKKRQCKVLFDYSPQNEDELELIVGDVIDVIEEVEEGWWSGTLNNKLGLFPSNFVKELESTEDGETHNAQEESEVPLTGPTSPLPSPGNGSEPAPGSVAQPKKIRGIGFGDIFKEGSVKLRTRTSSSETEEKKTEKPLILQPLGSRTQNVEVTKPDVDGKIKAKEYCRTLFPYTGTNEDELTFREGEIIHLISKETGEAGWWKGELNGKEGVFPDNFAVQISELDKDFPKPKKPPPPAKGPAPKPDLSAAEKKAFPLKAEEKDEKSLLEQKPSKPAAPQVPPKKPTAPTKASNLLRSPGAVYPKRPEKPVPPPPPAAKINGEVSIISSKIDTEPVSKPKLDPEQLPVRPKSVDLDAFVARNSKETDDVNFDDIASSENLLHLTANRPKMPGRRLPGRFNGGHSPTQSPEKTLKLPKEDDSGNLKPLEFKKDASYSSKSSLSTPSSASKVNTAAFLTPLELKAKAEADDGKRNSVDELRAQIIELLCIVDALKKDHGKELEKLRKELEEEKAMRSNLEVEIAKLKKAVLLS
# Cdk9, sequence (Q99J95 whole entry): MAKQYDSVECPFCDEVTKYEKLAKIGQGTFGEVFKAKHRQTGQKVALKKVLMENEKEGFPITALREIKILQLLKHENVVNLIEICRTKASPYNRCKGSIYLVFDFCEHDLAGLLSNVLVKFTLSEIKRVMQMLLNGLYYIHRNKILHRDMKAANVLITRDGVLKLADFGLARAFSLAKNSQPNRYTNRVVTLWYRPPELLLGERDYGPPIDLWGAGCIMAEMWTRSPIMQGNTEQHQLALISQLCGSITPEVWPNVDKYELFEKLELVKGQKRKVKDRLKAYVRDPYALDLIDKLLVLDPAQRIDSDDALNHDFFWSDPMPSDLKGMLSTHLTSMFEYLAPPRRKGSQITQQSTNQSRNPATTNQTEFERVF
# Utp18, sequence (Q5SSI6 whole entry): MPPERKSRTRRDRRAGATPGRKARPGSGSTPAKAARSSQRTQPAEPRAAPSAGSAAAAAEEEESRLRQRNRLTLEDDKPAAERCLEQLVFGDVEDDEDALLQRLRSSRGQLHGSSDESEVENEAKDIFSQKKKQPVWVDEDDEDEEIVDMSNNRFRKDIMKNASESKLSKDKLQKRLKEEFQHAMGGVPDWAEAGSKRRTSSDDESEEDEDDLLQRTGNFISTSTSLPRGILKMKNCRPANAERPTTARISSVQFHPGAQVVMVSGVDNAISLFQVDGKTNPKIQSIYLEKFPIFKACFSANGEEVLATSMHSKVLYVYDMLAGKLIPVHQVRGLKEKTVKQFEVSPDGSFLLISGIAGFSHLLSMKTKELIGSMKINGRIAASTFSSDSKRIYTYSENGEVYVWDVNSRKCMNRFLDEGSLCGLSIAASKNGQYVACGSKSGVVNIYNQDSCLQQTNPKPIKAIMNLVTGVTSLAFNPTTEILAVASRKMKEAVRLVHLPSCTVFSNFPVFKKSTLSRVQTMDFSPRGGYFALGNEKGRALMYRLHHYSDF
# Tagln2, sequence (Q9WVA4 2-199 limits assumed): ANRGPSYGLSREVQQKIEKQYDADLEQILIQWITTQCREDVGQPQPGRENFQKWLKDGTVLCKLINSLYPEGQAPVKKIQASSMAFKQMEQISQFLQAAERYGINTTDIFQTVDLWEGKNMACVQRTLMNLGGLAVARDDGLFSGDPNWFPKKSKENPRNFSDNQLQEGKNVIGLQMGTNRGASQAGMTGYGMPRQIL
substance,measurement,setting,value
TOX (from UniProt Q66JW3 1-526),Abundance,Kifc5b; Kifc1,1.73e-06
same,MiST Score,Kifc5b; Kifc1,0.88
same,Reproducibility,Kifc5b; Kifc1,0.63
same,Specificity,Kifc5b; Kifc1,1
same,Abundance,Terf2ip,2.33e-05
same,MiST Score,Terf2ip,0.869
same,Reproducibility,Terf2ip,0.595
same,Specificity,Terf2ip,1
same,Abundance,Trim21,4.56e-06
same,MiST Score,Trim21,0.858
same,Reproducibility,Trim21,0.56
same,Specificity,Trim21,1
same,Abundance,Hs2st1,6.47e-06
same,MiST Score,Hs2st1,0.879
same,Reproducibility,Hs2st1,0.628
same,Specificity,Hs2st1,1
same,Abundance,Dhx30,2.07e-06
same,MiST Score,Dhx30,0.89
same,Reproducibility,Dhx30,0.892
same,Specificity,Dhx30,0.897
same,Abundance,Metap2,1.54e-05
same,MiST Score,Metap2,0.881
same,Reproducibility,Metap2,0.927
same,Specificity,Metap2,0.868
same,Abundance,Utp18,1.83e-05
same,MiST Score,Utp18,0.865
same,Reproducibility,Utp18,0.582
same,Specificity,Utp18,1
same,Abundance,Chtop,0.000479
same,MiST Score,Chtop,0.862
same,Reproducibility,Chtop,0.936
same,Specificity,Chtop,0.837
same,Abundance,Cd2ap,5.85e-07
same,MiST Score,Cd2ap,0.879
same,Reproducibility,Cd2ap,0.628
same,Specificity,Cd2ap,1
same,Abundance,Snrpb2,7.46e-05
same,MiST Score,Snrpb2,0.858
same,Reproducibility,Snrpb2,0.558
same,Specificity,Snrpb2,1
same,Abundance,Ogdh,1.34e-05
same,MiST Score,Ogdh,0.88
same,Reproducibility,Ogdh,0.851
same,Specificity,Ogdh,0.902
same,Abundance,Tpm4,0.000138
same,MiST Score,Tpm4,0.859
same,Reproducibility,Tpm4,0.979
same,Specificity,Tpm4,0.812
same,Abundance,Cdc23,6.55e-06
same,MiST Score,Cdc23,0.872
same,Reproducibility,Cdc23,0.758
same,Specificity,Cdc23,0.931
same,Abundance,Cdk9,1.6e-05
same,MiST Score,Cdk9,0.865
same,Reproducibility,Cdk9,0.581
same,Specificity,Cdk9,1
same,Abundance,Rif1,1.07e-07
same,MiST Score,Rif1,0.874
same,Reproducibility,Rif1,0.611
same,Specificity,Rif1,1
same,Abundance,Pno1,0.000116
same,MiST Score,Pno1,0.884
same,Reproducibility,Pno1,0.988
same,Specificity,Pno1,0.845
same,Abundance,Eif5b,7.46e-06
same,MiST Score,Eif5b,0.878
same,Reproducibility,Eif5b,0.771
same,Specificity,Eif5b,0.933
same,Abundance,Tagln2,1.75e-05
same,MiST Score,Tagln2,0.875
same,Reproducibility,Tagln2,0.616
same,Specificity,Tagln2,1
same,Abundance,Eif4g2,4.84e-06
same,MiST Score,Eif4g2,0.866
same,Reproducibility,Eif4g2,0.887
same,Specificity,Eif4g2,0.864
same,Abundance,Safb; Safb2; mKIAA0138,3.18e-06
same,MiST Score,Safb; Safb2; mKIAA0138,0.873
same,Reproducibility,Safb; Safb2; mKIAA0138,0.609
same,Specificity,Safb; Safb2; mKIAA0138,1
same,Abundance,Mars,3.23e-07
same,MiST Score,Mars,0.877
same,Reproducibility,Mars,0.619
same,Specificity,Mars,1
same,Abundance,Trip12,1.4e-06
same,MiST Score,Trip12,0.866
same,Reproducibility,Trip12,0.585
same,Specificity,Trip12,1
same,Abundance,Dlgap5,6.65e-06
same,MiST Score,Dlgap5,0.876
same,Reproducibility,Dlgap5,0.81
same,Specificity,Dlgap5,0.914
same,Abundance,Sltm,2.12e-06
same,MiST Score,Sltm,0.864
same,Reproducibility,Sltm,0.988
same,Specificity,Sltm,0.816
Tox (from UniProt Q66JW3 1-526),Abundance,Sdcbp,5.96e-05
same,MiST Score,Sdcbp,0.957
same,Reproducibility,Sdcbp,0.88
same,Specificity,Sdcbp,1
same,Abundance,Nusap1,2.24e-05
same,MiST Score,Nusap1,0.899
same,Reproducibility,Nusap1,0.966
same,Specificity,Nusap1,0.877
